Data: the supplement of paper PMC10567573

B1: KRT33B (parent)
chain: PAVDLNQVLNETRNQYEALVETNR
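Further: lentivirally expressed fusions sorted by FACS into six bins by GFP to DsRed ratio, PSI derived from sequencing read proportions per bin multiplied by bin number.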

Variants of: B1
Test: protein stability index of a GFP-peptide fusion (GPS, HEK-293T) (PSI 1-6); higher = more stable
Conditions: c terminus: a fixed tail appended
Work on PAVDLNQVLNEGRNQYEALVETNR [T12G] yielded a protein stability index of 4.32. In the case of PAVDLNQVLNEFRNQYEALVETNR [T12F], the protein stability index is reported as 1.85. Variant PAVDLNQVLNECRNQYEALVETNR [T12C] has a protein stability index of 3.24. With PAVDLNQVLNEKRNQYEALVETNR [T12K] the protein stability index was 4.41. Variant PAVDLNQVLNEIRNQYEALVETNR [T12I] has a protein stability index of 2.41. In the case of PAVDLNQVLNEYRNQYEALVETNR [T12Y], the protein stability index is reported as 2.77. For PAVDLNQVLNESRNQYEALVETNR [T12S], the protein stability index was 3.8. Work on PAVDLNQVLNEQRNQYEALVETNR [T12Q] yielded a protein stability index of 2.85. With PAVDLNQVLNEDRNQYEALVETNR [T12D] the protein stability index was 4.61. Work on PAVDLNQVLSETRNQYEALVETNR [N10S] yielded a protein stability index of 3.31. In the case of PAVDLNQVLFETRNQYEALVETNR [N10F], the protein stability index is reported as 2.44. In the case of PAVDLNQVLKETRNQYEALVETNR [N10K], the protein stability index is reported as 2.74. In the case of PAVDLNQVLIETRNQYEALVETNR [N10I], the protein stability index is reported as 2.64. With PAVDLNQVLLETRNQYEALVETNR [N10L] the protein stability index was 2.56. Work on PAVDLNQVLGETRNQYEALVETNR [N10G] yielded a protein stability index of 4.34. With PAVDLNQVLTETRNQYEALVETNR [N10T] the protein stability index was 2.67. Variant PAVDLNQVLVETRNQYEALVETNR [N10V] has a protein stability index of 3.22. PAVDLNQVLNETRNQYEALVETNP [R24P] showed a protein stability index of 4.94. PAVDLNQVLNETRNQYEALVETNA [R24A] showed a protein stability index of 4. For PAVDLNQVLNETRNQYEALVETNN [R24N], the protein stability index was 4.16. For PAVDLNQVLNETRNQYEALVETNW [R24W], the protein stability index was 3.46. Variant PAVDLNQVLNETRNQYEALVETNS [R24S] has a protein stability index of 4.15. PAVDLNQVLNETRNQYEALVETNK [R24K] showed a protein stability index of 3.97. Variant PAVDLNQVLNETRNQYEALVETNV [R24V] has a protein stability index of 1.45. In the case of PAVDLNQVLNETRNQYEALVETNI [R24I], the protein stability index is reported as 2.59. Work on PAVDLNQVLNETRNQYEALVETNM [R24M] yielded a protein stability index of 2.16. Work on PAVDLNQVLNETRNQYEALLETNR [V20L] yielded a protein stability index of 3.88. Variant PAVDLNQVLNETRNQYEALHETNR [V20H] has a protein stability index of 4.92. PAVDLNQVLNETRNQYEALQETNR [V20Q] gave a protein stability index of 4.94. With PAVDLNQVLNETRNQYEALGETNR [V20G] the protein stability index was 4.49. For PAVDLNQVLNETRNQYEALEETNR [V20E], the protein stability index was 3.52. PAVDLNQVLNETRNQYEALFETNR [V20F] showed a protein stability index of 4.09. With PAVDLNQVLNLTRNQYEALVETNR [E11L] the protein stability index was 3.81. Variant PAVDLNQVLNMTRNQYEALVETNR [E11M] has a protein stability index of 3.31. PAVDLNQVLNKTRNQYEALVETNR [E11K] gave a protein stability index of 3.85. PAVDLNQVLNVTRNQYEALVETNR [E11V] gave a protein stability index of 3.88. PAVDLNQVLNNTRNQYEALVETNR [E11N] gave a protein stability index of 3.94. In the case of PAVDLNQVLNWTRNQYEALVETNR [E11W], the protein stability index is reported as 3.38. In the case of PAVDLNQRLNETRNQYEALVETNR [V8R], the protein stability index is reported as 4.93. Work on PAVDLNQSLNETRNQYEALVETNR [V8S] yielded a protein stability index of 4.43. PAVDLNQILNETRNQYEALVETNR [V8I] gave a protein stability index of 2.98. PAVDLNQDLNETRNQYEALVETNR [V8D] showed a protein stability index of 4.77. For PAVDLNQALNETRNQYEALVETNR [V8A], the protein stability index was 3.84. PAVDLNQYLNETRNQYEALVETNR [V8Y] gave a protein stability index of 2.49. For PAVDLNQTLNETRNQYEALVETNR [V8T], the protein stability index was 4.41. With PAVDLNQNLNETRNQYEALVETNR [V8N] the protein stability index was 4.83. Variant PAVDLNQKLNETRNQYEALVETNR [V8K] has a protein stability index of 4.56. PAVDLNQQLNETRNQYEALVETNR [V8Q] gave a protein stability index of 4.64. Work on PAVDLNQFLNETRNQYEALVETNR [V8F] yielded a protein stability index of 3.78. In the case of PAVDLNQELNETRNQYEALVETNR [V8E], the protein stability index is reported as 4.7. With PAVDLNQVLNETRNQYEALVEVNR [T22V] the protein stability index was 1.57. In the case of PAVDLNQVLNETRNQYEALVEKNR [T22K], the protein stability index is reported as 3.7. Variant PAVDLNQVLNETRNQYEALVEANR [T22A] has a protein stability index of 3.94. Variant PAVDLNQVLNETRNQYEALVEWNR [T22W] has a protein stability index of 3.88. In the case of PAVDLNQVLNETRNQYEALVEMNR [T22M], the protein stability index is reported as 3.33. For PAVDLNQVLNETRNQYEALVESNR [T22S], the protein stability index was 4.43. With PAVDKNQVLNETRNQYEALVETNR [L5K] the protein stability index was 4.79. PAVDNNQVLNETRNQYEALVETNR [L5N] showed a protein stability index of 5.02. Work on PAVDPNQVLNETRNQYEALVETNR [L5P] yielded a protein stability index of 4.03. PAVDGNQVLNETRNQYEALVETNR [L5G] showed a protein stability index of 5.15. With PAVDENQVLNETRNQYEALVETNR [L5E] the protein stability index was 4.53. For PAVDMNQVLNETRNQYEALVETNR [L5M], the protein stability index was 4. For PAVDYNQVLNETRNQYEALVETNR [L5Y], the protein stability index was 3.44. PAVDVNQVLNETRNQYEALVETNR [L5V] showed a protein stability index of 3.02. For PAVDANQVLNETRNQYEALVETNR [L5A], the protein stability index was 3.8. Variant PDVDLNQVLNETRNQYEALVETNR [A2D] has a protein stability index of 4.82. With PEVDLNQVLNETRNQYEALVETNR [A2E] the protein stability index was 2.26. PMVDLNQVLNETRNQYEALVETNR [A2M] gave a protein stability index of 2.4. Work on PHVDLNQVLNETRNQYEALVETNR [A2H] yielded a protein stability index of 3.93. For PGVDLNQVLNETRNQYEALVETNR [A2G], the protein stability index was 3.95. In the case of PNVDLNQVLNETRNQYEALVETNR [A2N], the protein stability index is reported as 4.4. For PKVDLNQVLNETRNQYEALVETNR [A2K], the protein stability index was 3.87. PAVDLNQVLNETQNQYEALVETNR [R13Q] gave a protein stability index of 4.32. In the case of PAVDLNQVLNETYNQYEALVETNR [R13Y], the protein stability index is reported as 3.69. For PAVDLNQVLNETVNQYEALVETNR [R13V], the protein stability index was 4.15. Variant PAVDLNQVLNETHNQYEALVETNR [R13H] has a protein stability index of 4.76. Work on PAVDLNQVLNETMNQYEALVETNR [R13M] yielded a protein stability index of 3.12. With PAVDLNQVLNETANQYEALVETNR [R13A] the protein stability index was 4.35. With PAVDLNQVLNETGNQYEALVETNR [R13G] the protein stability index was 4.35. Variant PAVDLNQVPNETRNQYEALVETNR [L9P] has a protein stability index of 4.72. For PAVDLNQVINETRNQYEALVETNR [L9I], the protein stability index was 3.55. PAVDLNQVFNETRNQYEALVETNR [L9F] gave a protein stability index of 4.25. PAVDLNQVMNETRNQYEALVETNR [L9M] gave a protein stability index of 4.13. PAVDLNQVSNETRNQYEALVETNR [L9S] gave a protein stability index of 4.96. PAVDLNQVWNETRNQYEALVETNR [L9W] gave a protein stability index of 4.32. PAVDLNQVTNETRNQYEALVETNR [L9T] gave a protein stability index of 4.61. With PAVDLNQVVNETRNQYEALVETNR [L9V] the protein stability index was 4.65. PAVDLNQVGNETRNQYEALVETNR [L9G] showed a protein stability index of 4.76. PAVDLNQVLNETRNQYEALVETKR [N23K] showed a protein stability index of 4.54. For PAVDLNQVLNETRNQYEALVETPR [N23P], the protein stability index was 4.54. Variant PAVDLNQVLNETRNQYEALVETRR [N23R] has a protein stability index of 4.31. Work on PAVDLNQVLNETRNQYEALVETCR [N23C] yielded a protein stability index of 4.03. PAVDLNQVLNETRNQYEALVETFR [N23F] showed a protein stability index of 2.58. Work on PAVDLNQVLNETRNQYEALVETAR [N23A] yielded a protein stability index of 4.3.
